In experiment [1] the target is T1, Purified recombinant protein (full length) of human phosphatidylserine decarboxylase (PSD), with N-terminal His tag, expressed in E. coli (Acris-OriGene) (human).
T1 sequence (chain, fluorescently labelled in the MST assay with the peptides): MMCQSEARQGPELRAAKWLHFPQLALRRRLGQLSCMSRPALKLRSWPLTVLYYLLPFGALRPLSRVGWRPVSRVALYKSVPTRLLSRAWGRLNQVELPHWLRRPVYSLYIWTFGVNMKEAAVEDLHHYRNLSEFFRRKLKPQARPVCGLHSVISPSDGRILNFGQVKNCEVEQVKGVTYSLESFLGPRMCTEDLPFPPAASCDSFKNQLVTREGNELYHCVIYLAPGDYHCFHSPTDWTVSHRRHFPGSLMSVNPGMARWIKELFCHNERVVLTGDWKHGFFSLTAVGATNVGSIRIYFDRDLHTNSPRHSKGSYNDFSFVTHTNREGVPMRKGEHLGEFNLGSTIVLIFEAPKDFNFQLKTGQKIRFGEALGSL
The experiment in a line: cell-based or functional assay.

The target is the same in experiment [2]. The experiment in a line: MST, fluorescently labelled purified PSD 0.25 µM, peptide titrated 1-10 µM.
Experiment [3] has the same target. The experiment in a line: microscale thermophoresis; fluorescently labelled PSD (0.25 µM) with peptide (1-10 µM).

Ends that are not written are not given here.

By EC50 (read off the curve) is commonly meant the concentration at which the effect is half-maximal. In general, Kd refers to a measure of binding affinity in units of concentration.

Regarding ALLTSGTSDPRARVTYGTPSLWARL (not fully specified) [peptide 1C11, derived from HTRA2], in experiment [1], the inhibition of PSD activity (DSB-3 method) came out at 1 µM. The EC50 (read off the curve) in experiment [2] came out at 4000 nM. Besides, in experiment [3], the Kd came to 3000 nM.
Regarding ALSTSSPIPSVPQSQAQPQTGSGAS [peptide 2F3, derived from MAML2], in experiment [1], the inhibition of PSD activity (DSB-3 method) amounted to 1 µM. The EC50 (read off the curve) in experiment [2] amounted to 3000 nM. Also, the Kd in experiment [3] is 3000 nM.

Source of the values: US20250051409A1, “MODULATORS OF PHOSPHATIDYLSERlNE DECARBOXYLASE AND USE THEREOF” (THE NATIONAL INSTITUTE FOR BIOTECHNOLOGY IN THE NEGEV LTD., priority 2021, published 2025).
